The target of experiment [1] is T1, murine fibroblast activation protein (FAP) (mouse, UniProt P97321 1-761).
T1 construct: whole, on cells; also called mouse FAP; muFAP
T1 sequence (looked up): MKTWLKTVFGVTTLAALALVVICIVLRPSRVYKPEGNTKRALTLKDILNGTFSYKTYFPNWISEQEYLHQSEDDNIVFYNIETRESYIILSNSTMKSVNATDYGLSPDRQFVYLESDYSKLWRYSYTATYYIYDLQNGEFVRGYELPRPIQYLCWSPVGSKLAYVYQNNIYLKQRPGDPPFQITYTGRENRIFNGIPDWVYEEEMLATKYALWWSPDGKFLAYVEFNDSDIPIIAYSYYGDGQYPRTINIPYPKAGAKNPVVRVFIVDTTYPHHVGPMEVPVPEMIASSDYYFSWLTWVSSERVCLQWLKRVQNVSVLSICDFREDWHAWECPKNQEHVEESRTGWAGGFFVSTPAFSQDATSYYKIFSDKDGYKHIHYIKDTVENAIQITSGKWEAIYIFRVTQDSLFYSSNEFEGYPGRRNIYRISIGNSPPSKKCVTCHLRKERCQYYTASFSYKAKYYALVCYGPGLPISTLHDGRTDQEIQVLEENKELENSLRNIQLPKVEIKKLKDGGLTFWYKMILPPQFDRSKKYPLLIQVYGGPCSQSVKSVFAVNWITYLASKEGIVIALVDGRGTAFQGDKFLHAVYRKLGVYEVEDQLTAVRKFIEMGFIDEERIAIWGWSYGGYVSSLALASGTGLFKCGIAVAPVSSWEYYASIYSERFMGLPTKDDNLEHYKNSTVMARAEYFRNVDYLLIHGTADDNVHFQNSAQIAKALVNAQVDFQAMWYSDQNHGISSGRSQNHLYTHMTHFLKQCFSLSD
In words: flow cytometry, hybridoma supernatant on BALB/c 3T3 cells with a murine FAP transgene. The procedure:
(§1) BALB/c 3T3 cells expressing full-length canine FAP were used to immunize 14 week old BALB/c.FAP^{-/-} mice. All injections were given intraperitoneally and consisted of 1×10⁷ cells in 0.5 ml sterile PBS. An initial immunization was followed by boosts on days 14 and 28; animals were then bled on day 42 followed a boost on day 56, bleeding on day 63, and three more boosts on days 70, 217, and 238. On day 241, […] spleens were harvested, a single cell suspension prepared, and splenocytes fused with sp2/0 cells by the UPENN Hybridoma Core Facility. Hybridoma supernatant were initially screened by FACS on MC KOSA parental (FAP null) vs. canine FAP-transgene expressing MC KOSA.K9FAP using hybridoma supernatants as the primary antibodies and AF488 goat anti-mouse IgG as a secondary. Clone 4G5 was identified as reactive to transduced cells but not parental cells and screened on additional cells to confirm reactivity with FAP expressing but not FAP-negative cells: Human primary fibroblasts, BALB/c 3T3 expressing murine or human FAP transgenes, canine primary fibroblasts, SK KOSA (FAP expressing), and BALB/c 3T3 (FAP negative) cells. 4G5 was then determined to be an IgG1k isotype antibody using Thermo Fisher Rapid ELISA Mouse mAb Isotyping Kit #37503.
(§2) BALB/c 3T3 fibroblast cells transduced to express full-length canine FAP were used to immunize 14 week old BALB/c FAP^{-/-} mice. […]
In general terms: In flow cytometry, cells or beads pass a laser one at a time.

Experiment [2] deals with T2, human fibroblast activation protein (FAP) (human, UniProt Q12884 1-760).
T2 construct: whole, on cells; also called human FAP; huFAP
T2 sequence (looked up): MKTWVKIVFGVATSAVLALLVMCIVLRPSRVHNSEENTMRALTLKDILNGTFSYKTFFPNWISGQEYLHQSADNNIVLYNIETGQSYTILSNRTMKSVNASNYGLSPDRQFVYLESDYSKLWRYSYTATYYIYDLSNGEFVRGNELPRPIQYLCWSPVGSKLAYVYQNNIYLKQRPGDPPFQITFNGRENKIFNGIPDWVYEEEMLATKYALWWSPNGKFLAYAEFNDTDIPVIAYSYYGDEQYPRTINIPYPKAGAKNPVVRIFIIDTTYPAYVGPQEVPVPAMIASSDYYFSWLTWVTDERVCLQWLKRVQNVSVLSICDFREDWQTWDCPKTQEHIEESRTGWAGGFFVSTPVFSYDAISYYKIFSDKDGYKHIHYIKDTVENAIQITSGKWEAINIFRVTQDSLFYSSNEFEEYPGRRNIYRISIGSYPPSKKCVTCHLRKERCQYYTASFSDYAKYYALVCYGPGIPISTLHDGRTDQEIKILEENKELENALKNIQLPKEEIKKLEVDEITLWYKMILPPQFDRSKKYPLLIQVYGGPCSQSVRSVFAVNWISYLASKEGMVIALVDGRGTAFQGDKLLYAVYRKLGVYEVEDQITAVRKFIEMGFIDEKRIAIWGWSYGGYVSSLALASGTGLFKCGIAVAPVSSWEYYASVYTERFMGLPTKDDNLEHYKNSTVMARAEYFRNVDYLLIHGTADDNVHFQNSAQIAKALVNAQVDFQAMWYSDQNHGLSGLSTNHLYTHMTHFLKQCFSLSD
In words: flow cytometry, hybridoma supernatant on human primary fibroblasts and BALB/c 3T3 cells with a human FAP transgene. On the procedure: as §1, §2

B1: clone 4G5 anti-FAP antibody (antibody, mouse IgG1, V domains shown)
VH: QVQLQQPGAELVKPGASVKLSCKASGYTITSYSLHWVKQRPGQGLEWIGEINPANGDHNFSEKFEIKATLTVDSSSNTAFMQLSRLTSEDSAVYYCTRLDDSRFHWYFDVWGAGTTVTVSS
VL: QIVLTQSPALMSASPGEKVTMTCTASSSVSYMYWYQQKPRSSPKPWIFLTSNLASGVPARFSGRGSGTSFSLTISSMEAEDAATYYCQQWSGYPPITFGSGTKLEIK
notes: Mouse IgG1 kappa antibody from a hybridoma, used as hybridoma supernatant in flow cytometry; also called 4G5 immunoglobulin; monoclonal 4G5 antibody
Turning to B1, the binding result in experiment [1] and in experiment [2] was “binds” throughout.
